Results: paper PMC9856709 (Cancers, 2023)
Numbered stars: 1 amine (or outer) side, 2 acyl side, 3 side chain; on linkers, the order of the positions; unused ones are H or OH. Square brackets hold non-standard residues; d marks the D form. Peptide text beside a SMILES is read from it. * marks the point of attachment. NOTA = O=C(O)CN1CCN(CC(=O)O)CCN(CC(=O)*)CC1; γGlu = O=C(O)[C@H](CCC(=O)[*:2])N[*:1]; Sta = CC(C)C[C@H](N)[C@@H](O)CC(=O)O; AEEA = NCCOCCOCC(=O)O; Aoc = NCCCCCCCC(=O)O; CO = O=C([*:1])[*:2]

Experiment: in vivo
Details: BALB/c nu/nu, mouse, iv, 40 pmol, total radioactivity
Experimental: Ex vivo experiments and in vivo imaging were carried out using BALB/c nu/nu mice bearing PC3-pip xenografts. All studies were performed according to the guidelines of the Declaration of Helsinki and approved by the Ethics Committee for Animal Research in Uppsala, Sweden (5.8.18-00473/2021. Approved on 26 February 2021).
There were 4 mice in each group. At 1 and 3 h pi, mice were sacrificed after an intraperitoneal injection of a Ketalar–Rompun solution (20 μL/g body weight) consisting of Ketalar (10 mg/mL) and Rompun (1 mg/mL), followed by heart puncture.

CC(C)C[C@H](NC(=O)C[C@H](O)[C@H](CC(C)C)NC(=O)[C@H](Cc1c[nH]cn1)NC(=O)CNC(=O)[C@@H](NC(=O)[C@H](C)NC(=O)[C@H](Cc1c[nH]c2ccccc12)NC(=O)[C@H](CCC(N)=O)NC(=O)[C@@H](Cc1ccccc1)NC(=O)COCCOCCNC(=O)[C@H](CCCCNC(=O)CN1CCN(CC(=O)O)CCN(CC(=O)O)CC1)NC(=O)[C@H](Cc1ccccc1)NC(=O)CCCCCCCNC(=O)CC[C@H](NC(=O)N[C@@H](CCC(=O)O)C(=O)O)C(=O)O)C(C)C)C(N)=O [[^68Ga]Ga-BQ7812, metal not drawn] ({Glu-CO-γGlu-Aoc}-FK(NOTA)[AEEA][dF]QWAVGH[Sta]L-NH2)
tissue uptake at 1 h (blood): 0.86 ± 0.16 %ID/g | tissue uptake at 3 h (blood): 0.16 ± 0.02 %ID/g | tissue uptake at 1 h (bone): 0.31 ± 0.06 %ID/g | tissue uptake at 3 h (bone): 0.13 ± 0.03 %ID/g | tissue uptake at 1 h (kidneys): 45.3 ± 16.6 %ID/g | tissue uptake at 1 h (liver): 0.89 ± 0.1 %ID/g | tissue uptake at 3 h (liver): 0.57 ± 0.03 %ID/g | tissue uptake at 1 h (lungs): 0.86 ± 0.15 %ID/g | tissue uptake at 3 h (lungs): 0.2 ± 0.05 %ID/g | tissue uptake at 1 h (muscle): 0.21 ± 0.04 %ID/g | tissue uptake at 3 h (muscle): 0.05 ± 0.01 %ID/g | tissue uptake at 1 h (pancreas): 5.6 ± 0.7 %ID/g | tissue uptake at 3 h (pancreas): 0.6 ± 0.16 %ID/g | tissue uptake at 1 h (remaining organs (other than tumour, kidneys, pancreas)): ≤ 1 %ID/g | tissue uptake at 1 h (salivary glands): 0.44 ± 0.07 %ID/g | tissue uptake at 3 h (salivary glands): 0.14 ± 0.03 %ID/g | tissue uptake at 1 h (small intestine): 1.33 ± 0.31 %ID/g | tissue uptake at 3 h (small intestine): 0.2 ± 0.02 %ID/g | tissue uptake at 1 h (spleen): 0.92 ± 0.16 %ID/g | tissue uptake at 3 h (spleen): 0.33 ± 0.03 %ID/g | tissue uptake at 3 h (tumour (PC3-pip xenograft)): 5.68 ± 0.62 %ID/g | tissue to tissue ratio at 3 h (tumour (PC3-pip) / bone): 47 ± 13 | tissue to tissue ratio at 3 h (tumour (PC3-pip) / kidneys): 0.53 ± 0.07 | tissue to tissue ratio at 3 h (tumour (PC3-pip) / liver): 9.9 ± 0.8 | tissue to tissue ratio at 3 h (tumour (PC3-pip) / muscle): 116 ± 22 | tissue to tissue ratio at 3 h (tumour (PC3-pip) / pancreas): 10 ± 4 | tissue to tissue ratio at 3 h (tumour (PC3-pip) / small intestine): 28 ± 4 | tissue to tissue ratio at 3 h (tumour (PC3-pip) / spleen): 18 ± 3 | tissue uptake at 1 h (tumour (PC3-pip)): 10.4 ± 0.97 %ID/g | tissue uptake at 3 h (tumour (PC3-pip)): 5.7 ± 0.6 %ID/g | tissue to tissue ratio at 1 h (tumour / blood): 13 ± 3 | tissue to tissue ratio at 3 h (tumour / blood): 35 ± 4 | tissue to tissue ratio at 1 h (tumour / bone): 35 ± 8 | tissue to tissue ratio at 1 h (tumour / kidneys): 0.3 ± 0.1 | tissue to tissue ratio at 1 h (tumour / liver): 11.8 ± 1 | tissue to tissue ratio at 1 h (tumour / lungs): 12 ± 3 | tissue to tissue ratio at 3 h (tumour / lungs): 29 ± 5 | tissue to tissue ratio at 1 h (tumour / muscle): 52 ± 12 | tissue to tissue ratio at 1 h (tumour / pancreas): 1.9 ± 0.2 | tissue to tissue ratio at 1 h (tumour / salivary glands): 24 ± 3 | tissue to tissue ratio at 3 h (tumour / salivary glands): 40 ± 8 | tissue to tissue ratio at 1 h (tumour / small intestine): 8 ± 2 | tissue to tissue ratio at 1 h (tumour / spleen): 12 ± 3
